We go through 1 molecule from patent US20240252732A1 (IMMUNICOM, published 2024).

Usually Kd stands for the concentration at which binding is half-saturated. A lower Kd goes with higher affinity.

For experiment [1], the target named is T1, soluble TNF receptor 1 (sTNF-R1) (human, UniProt P19438 30-211).
T1 construct: extracellular domain
T1 sequence (looked up): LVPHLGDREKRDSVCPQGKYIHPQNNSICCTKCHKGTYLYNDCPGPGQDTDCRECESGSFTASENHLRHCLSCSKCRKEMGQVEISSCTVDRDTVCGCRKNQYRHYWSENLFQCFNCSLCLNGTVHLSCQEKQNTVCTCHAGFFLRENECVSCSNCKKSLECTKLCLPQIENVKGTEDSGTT
Nature of the experiment: equilibrium KD; method not stated.

The target in experiment [2] is T2, soluble TNF receptor 2 (sTNF-R2) (human, UniProt P20333 23-257).
T2 construct: extracellular domain
T2 sequence (looked up): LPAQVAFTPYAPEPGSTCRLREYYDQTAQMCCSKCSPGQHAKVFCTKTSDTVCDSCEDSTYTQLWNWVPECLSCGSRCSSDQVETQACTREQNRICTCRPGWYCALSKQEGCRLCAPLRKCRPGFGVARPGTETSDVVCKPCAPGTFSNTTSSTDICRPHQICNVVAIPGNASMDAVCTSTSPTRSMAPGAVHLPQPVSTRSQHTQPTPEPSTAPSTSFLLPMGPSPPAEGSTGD
Nature of the experiment: equilibrium KD; method not stated.

B1: SEQ11 modified single chain TNF (scTNF) (ligand)
chain: THHHHHHHHHHAGGAENLYFQGSASSSSRTPSDKPVAHVVANPQAEGQLQWVNRRANALLANGVELRDNQLVVPSEGLYLIYSQVLFKGQGCPSTHVLLTHTISRIAVSYQTKVNLLSAIKSPCQRETPEGAEAKPWYEPIYLGGVFQLEKGDRLSAEINRPDYLDFDDDGQVYFGIIALGGGSGGGSGGGSGGGSSSRTPSDKPVAHVVANPQAEGQLQWVNRRANALLANGVELRDNQLVVPSEGLYLIYSQVLFKGQGCPSTHVLLTHTISRIAVSYQTKVNLLSAIKSPCQRETPEGAEAKPWYEPIYLGGVFQLEKGDRLSAEINRPDYLDFDDDGQVYFGIIALGGGSGGGSGGGSGGGSSSRTPSDKPVAHVVANPQAEGQLQWVNRRANALLANGVELRDNQLVVPSEGLYLIYSQVLFKGQGCPSTHVLLTHTISRIAVSYQTKVNLLSAIKSPCQRETPEGAEAKPWYEPIYLGGVFQLEKGDRLSAEINRPDYLDFDDDGQVYFGIIAL
notes: also called TNF variant trimer
B1: the Kd in experiment [1] was determined as 100 nM; in experiment [2], 12 nM.
